From publication PMC10038052
Read-outs that look alike come from different tables or passages of the source.

Columns and labels:
Test in all cases: fluorescence polarization
MBP-hnRNP A2/B1 (1-251) [1] = molecular target: T1, MBP-hnRNP A2/B1 (1-251) (UniProt P22626 1-251)
MBP-hnRNP A2/B1 (1-251) [2] = molecular target: T1, MBP-hnRNP A2/B1 (1-251); remark: listed apart in the source
SRSF1 RRM1+2 [3] = molecular target: T2, SRSF1 RRM1+2 (UniProt Q07955 1-195)
MBP-hnRNP A2/B1 (1-251) [4] = molecular target: T1, MBP-hnRNP A2/B1 (1-251); remark: listed apart in the source
SRSF1 RRM1+2 [5] = molecular target: T2, SRSF1 RRM1+2; remark: listed apart in the source

T1 sequence (P22626 1-251): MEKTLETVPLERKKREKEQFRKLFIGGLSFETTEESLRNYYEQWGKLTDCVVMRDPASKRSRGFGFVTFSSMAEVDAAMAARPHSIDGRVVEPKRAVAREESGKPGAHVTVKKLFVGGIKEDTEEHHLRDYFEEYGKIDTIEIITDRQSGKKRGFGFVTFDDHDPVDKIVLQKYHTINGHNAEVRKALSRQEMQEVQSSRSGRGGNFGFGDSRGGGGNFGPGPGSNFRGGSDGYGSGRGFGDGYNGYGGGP
T2 sequence (Q07955 1-195): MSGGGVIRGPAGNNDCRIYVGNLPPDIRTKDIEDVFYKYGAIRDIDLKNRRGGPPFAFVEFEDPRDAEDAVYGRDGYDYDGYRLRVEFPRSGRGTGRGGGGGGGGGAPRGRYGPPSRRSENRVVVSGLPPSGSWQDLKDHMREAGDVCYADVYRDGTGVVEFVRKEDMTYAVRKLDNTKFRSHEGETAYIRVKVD

## AAGGACUAGC (ssRNA) [FAM-H1 (10 mer 1n)]
MBP-hnRNP A2/B1 (1-251) [1]
  Kd: 51.7 ± 9 nM

## AAGGACUAGCAAGGACUAGC (ssRNA) [FAM-H2 (10 mer 2n)]
MBP-hnRNP A2/B1 (1-251) [2]
  Kd: 135 ± 9 nM

## AGAAGAACAGAAGAAC (ssRNA) [FAM-S2 (A3 2n)]
SRSF1 RRM1+2 [3]
  Kd: 56.1 ± 17.5 nM

## AAGGACUAGCAAGGACUAGCAAGGACUAGC (ssRNA) [FAM-H3 (10 mer 3n)]
MBP-hnRNP A2/B1 (1-251) [4]
  Kd: 24 ± 8.1 nM

## AGAAGAACAGAAGAACAGAAGAAC (ssRNA) [FAM-S3 (A3 3n)]
SRSF1 RRM1+2 [5]
  Kd: 42.5 ± 33.9 nM
